Measurements taken from paper PMC5509376 (PLoS Pathogens, 2017).

Molecular target: T1, VPS10P domain of sortilin fused with GST (mouse, UniProt Q6PHU5 76-750)
T1 construct: also called GST-VPS10P; GST-tagged VPS10P domain of sortilin
T1 sequence (looked up): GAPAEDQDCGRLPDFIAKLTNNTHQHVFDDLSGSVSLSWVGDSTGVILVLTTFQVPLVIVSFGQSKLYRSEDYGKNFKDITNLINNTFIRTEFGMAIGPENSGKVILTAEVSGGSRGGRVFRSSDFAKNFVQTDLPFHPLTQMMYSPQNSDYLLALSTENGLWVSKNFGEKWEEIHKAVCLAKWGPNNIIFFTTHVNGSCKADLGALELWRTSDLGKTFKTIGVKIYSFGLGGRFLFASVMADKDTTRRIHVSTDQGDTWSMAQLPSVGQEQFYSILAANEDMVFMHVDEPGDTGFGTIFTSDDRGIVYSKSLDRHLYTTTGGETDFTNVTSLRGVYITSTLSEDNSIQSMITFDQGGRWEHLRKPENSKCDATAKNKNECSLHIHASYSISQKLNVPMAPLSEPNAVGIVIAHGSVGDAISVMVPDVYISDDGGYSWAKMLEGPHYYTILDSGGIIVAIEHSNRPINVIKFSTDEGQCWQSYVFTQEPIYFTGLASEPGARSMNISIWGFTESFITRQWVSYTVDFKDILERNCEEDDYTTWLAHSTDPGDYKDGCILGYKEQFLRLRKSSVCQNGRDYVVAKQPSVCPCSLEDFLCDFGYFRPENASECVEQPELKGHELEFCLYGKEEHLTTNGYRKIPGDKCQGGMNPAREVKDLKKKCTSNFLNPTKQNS
Experiment: pull-down
Details: both partners purified

B1: His-tagged full-length recombinant PrP (natural protein)
chain: not shown
B1: binds.
